From patent US11180770B2, “HPPD variants and methods of use” (BASF Agricultural Solutions Seed US LLC, priority 2017, dated 2021)
Positions count from the first letter of the chain named.

B1: SEQ ID NO:1 (protein, listed as Pseudomonas fluorescens)
chain: MADLYENPMGLMGFEFIEFASPTPGTLEPIFEIMGFTKVATHRSKNVHLYRQGEINLILNNEPNSIASYFAAEHGPSVCGMAFRVKDSQKAYNRALELGAQPIHIDTGPMELNLPAIKGIGGAPLYLIDRFGEGSSIYDIDFVYLEGVERNPVGAGLKVIDHLTHNVYRGRMVYWANFYEKLFNFREARYFDIKGEYTGLTSKAMSAPDGMIRIPLNEESSKGAGQIEEFLMQFNGEGIQHVAFLTDDLVKTWDALKKIGMRFMTAPPDTYYEMLEGRLPDHGEPVDQLQARGILLDGSSVEGDKRLLLQIFSETLMGPVFFEFIQRKGDDGFGEGNFKALFESIERDQVRRGVLTAD
modifications: 4-hydroxyphenylpyruvate dioxygenase (HPPD; Pseudomonas fluorescens) (1)..(358)
B2: SEQ ID NO: 47: mutant PfHPPD: 268A 270N 335P 336H 337S 340V 344Q 345M (protein)
chain: B1 chain with P268A, T270N, E335P, G336H, N337S, A340V, S344Q, I345M
modifications: mutant HPPD polypeptide
notes: mutant PfHPPD: 268A 270N 335P 336H 337S 340V 344Q 345M
B3: SEQ ID NO: 66: mutant PfHPPD: 213K 268A 270S 335P 336H 337S 340V 344Q 345M (protein)
chain: B1 chain with R213K, P268A, T270S, E335P, G336H, N337S, A340V, S344Q, I345M
modifications: mutant HPPD polypeptide
notes: mutant PfHPPD: 213K 268A 270S 335P 336H 337S 340V 344Q 345M
B4: SEQ ID NO: 68: mutant PfHPPD: 268A 270S 315Q 335P 336H 337S 340V 344Q 345M (protein)
chain: B1 chain with P268A, T270S, T315Q, E335P, G336H, N337S, A340V, S344Q, I345M
modifications: mutant HPPD polypeptide
notes: mutant PfHPPD: 268A 270S 315Q 335P 336H 337S 340V 344Q 345M
B5: SEQ ID NO: 69: mutant PfHPPD: 268A 270S 315R 335P 336H 337S 340V 344Q 345M (protein)
chain: B1 chain with P268A, T270S, T315R, E335P, G336H, N337S, A340V, S344Q, I345M
modifications: mutant HPPD polypeptide
notes: mutant PfHPPD: 268A 270S 315R 335P 336H 337S 340V 344Q 345M
B6: SEQ ID NO: 70: mutant PfHPPD: 213K 268A 270S 315Q 335P 336H 337S 340V 344Q 345M (protein)
chain: B1 chain with R213K, P268A, T270S, T315Q, E335P, G336H, N337S, A340V, S344Q, I345M
modifications: mutant HPPD polypeptide
notes: mutant PfHPPD: 213K 268A 270S 315Q 335P 336H 337S 340V 344Q 345M
B7: 44 (protein)
chain: B1 chain with P268G, T270E, E335P, G336H, N337S, A340V, S344Q, I345V
modifications: mutant HPPD polypeptide
B8: 45 (protein)
chain: B1 chain with P268A, T270N, E335P, G336H, N337S, A340V, S344Q, I345V
modifications: mutant HPPD polypeptide
B9: SEQ ID NO: 2: prior art mutant HPPD polypeptide (WO2014/043435): 335P 336W 339A 340Q (protein)
chain: B1 chain with E335P, G336W, K339A, A340Q
modifications: mutant HPPD polypeptide
notes: prior art mutant HPPD polypeptide (WO2014/043435): 335P 336W 339A 340Q

Assays:
HPPD polypeptides [1] = test: coupled HPPD activity assay: turnover and residual turnover in crude extracts; type: biochemical, Pseudomonas fluorescens; conditions: for Turnover: absence of Cmpd. 1, kinetic changes in absorbance (OD) at 320 nm, 30 min; for Turnover / Residual turnover: high substrate concentration; for Residual turnover: presence of 100 μM Cmpd. 1, changes in absorbance (OD) at 320 nm; for turnover / residual turnover in the presence of Cmpd. 1 compared with a reference HPPD polypeptide, in words: comparison with the reference or parent polypeptide
T0 soybean plants = test: greenhouse spray test, leaf area damage score; type: in vivo; conditions: for leaf area damage score, 25th percentile / leaf area damage score, 75th percentile / leaf area damage score, 90th percentile / leaf area damage score, Median: transgenic soybean T0 events, five days after Cmpd. 1 at 300 g AI/ha; for leaf area damage score, 25th percentile: scale 0 (no damage) to 100 (complete bleaching)
Source text: Tolerant green shoots were transferred to rooting media or grafted. Rooted plantlets were transferred to the greenhouse after an acclimation period. Plants containing the transgene were then sprayed with HPPD inhibitor herbicides, as for example with mesotrione at a rate of 300-600 g AI/ha, or with Cmpd. 1 (2-chloro-3-(methylsulfanyl)-N-(1-methyl-1H-tetrazol-5-yl)-4-(trifluoromethyl)-benzamide) at a rate of 150 g-300 g AI/ha supplemented with ammonium sulfate and methyl ester rapeseed oil. Five to ten days after the application, the symptoms due to the application of the herbicide were evaluated and compared to the symptoms observed on wild-type plants under the same conditions. For example, T0 soybean plants having a “plant expression cassette”, which includes an HPPD inhibitor tolerant HPPD polypeptide of the present invention, were tested towards the tolerance of Cmpd. 1. Prior greenhouse trials with the transgenic plants, soybean transformants were routinely analyzed for the expression and presence of the transgenes using the ELISA protein detection method (see detailed description under item D and H). Only plants recovering in the selection media and having a detectable HPPD transgene protein expression were used for the herbicide tolerance analysis. A DeVries Tracker Sprayer was calibrated prior to each spraying. The chemical formulation used for Cmpd. 1 was supplemented with ammonium sulfate and methylated rape seed oil. Spray tests were conducted with a concentration, which equals to 300 grams AI per hectare (300 g AI/ha).
In greenhouse trials, independent T0 soybean events containing an exemplary mutant HPPD polypeptide were sprayed with the HPPD inhibitor herbicide Cmpd. 1 (2-chloro-3-(methylsulfanyl)-N-(1-methyl-1H-tetrazol-5-yl)-4-(trifluoromethyl)benzamide) at the rate of 300 grams AI/ha, supplemented with ammonium sulfate and methyl ester rapeseed oil. Five days after the application, the leaf damaged area due to the HPPD inhibitor herbicide is scored in a scale from 0 (no damage) to 100 (complete bleaching). Under those conditions, the wild-type plants were completely bleached and their damage scores were in the 95-100 range.
Table 5 presents the distribution of the HPPD inhibitor herbicide damage score data as percentile for exemplary mutant HPPD inhibitor herbicide tolerant polypeptides (SEQ ID NOs). The percentiles normalize ranks of the damage score from an individual plant in a population. […] The median is the 50th percentile. Half the values had higher damage scores; half had lower damage scores. The value of the 75th and 90th percentile is the damage score where 75% and 90% of the soybean events had lower damage scores, respectively. The difference between the 75th and 25th percentile is called the interquartile range and a marker to quantify scattering in the population. All constructs had only one single cassette insertion in the soybean genome.

soybean shoots = test: selection of soybean shoots with tembotrione (greening/bleaching); type: in vivo; conditions: wild-type soybean shoots treated with tembotrione as selection marker
Source text: Soybean transformation was achieved by using methods well known in the art, such as the one described using the Agrobacterium tumefaciens mediated transformation soybean half-seed explants using essentially the method described by Paz et al. (2006), Plant cell Rep. 25:206. Transformants were identified by using the HPPD inhibitor herbicide “tembotrione” as selection marker. The appearance of green shoots was observed, and documented as an indicator of tolerance to the HPPD inhibitor herbicide tembotrione.

HPPD polypeptides [2] = test: coupled HPPD activity assay: turnover and residual turnover in crude extracts; type: biochemical, Pseudomonas fluorescens; conditions: FIG. 2

| Molecule | turnover / residual turnover in the presence of Cmpd. 1 compared with a reference HPPD polypeptide, in words (HPPD polypeptides [1]) | leaf area damage score, 25th percentile (T0 soybean plants) | leaf area damage score, 75th percentile (T0 soybean plants; scale 0-100) | leaf area damage score, 90th percentile (T0 soybean plants; scale 0-100) | leaf area damage score, Median (T0 soybean plants; scale 0-100) | further results |
| --- | --- | --- | --- | --- | --- | --- |
| CSc1c(C(F)(F)F)ccc(C(=O)Nc2nnnn2C)c1Cl [Cmpd. 1, 2-chloro-3-(methylsulfanyl)-N-(1-methyl-1H-tetrazol-5-yl)-4-(trifluoromethyl)benzamide, reference compound] | – | – | – | – | – | Turnover (HPPD polypeptides [1]): 0.203; Residual turnover (HPPD polypeptides [1]): 0.021; leaf damage score of wild-type plants (T0 soybean plants; wild-type soybean plants, 300 grams AI/ha, five days after application, scale 0-100): 95-100 |
| CS(=O)(=O)c1ccc(C(=O)C2C(=O)CCCC2=O)c(Cl)c1COCC(F)(F)F [tembotrione, 2-[2-chloro-4-(methylsulfonyl)-3-[(2,2,2,-trifluoroethoxy)methyl]benzoyl]-1,3-cyclohexanedione] | – | – | – | – | – | effect on wild-type soybean shoots (soybean shoots): entirely bleached |
| B1 | – | – | – | – | – | Residual turnover (HPPD polypeptides [1]): 0.021; mode of inhibition by HPPD inhibitor herbicides (time-course of inhibition) (HPPD polypeptides [2]): slow and tight binding inhibitor |
| B2 | significant increase in the residual turnover | 5.0 | 15.0 | 51.0 | 15.0 | – |
| B3 | increase significantly the turnover and the residual turnover | 5.0 | 25.0 | 41.0 | 10.0 | – |
| B4 | increase significantly the turnover and the residual turnover | 5.0 | 16.3 | 20.0 | 10.0 | – |
| B5 | increase significantly the turnover and the residual turnover | 20.0 | 25.0 | 42.0 | 20.0 | – |
| B6 | increase significantly the turnover and the residual turnover | 10.0 | 25.0 | 35.0 | 15.0 | – |
| B7 | – | – | – | – | – | Turnover (HPPD polypeptides [1]): 0.036 |
| B8 | – | – | – | – | – | Residual turnover [%] (HPPD polypeptides [1]; 100 μM Cmpd. 1, signal change with inhibitor divided by signal change without inhibitor): 57%; Turnover (HPPD polypeptides [1]): 0.214; Residual turnover (HPPD polypeptides [1]): 0.121 |
| B9 | – | 15.0 | 45.0 | 87.0 | 20.0 | – |
